Biological target: HLA-B*0801 (Homo sapiens, UniProt P01889, A93T/A95T/D138N/E176V/E187T/K202T/Q94N/R180D/S35A/V36M/Y33D/Y91F)
Assay: MHC class I-associated peptides eluted from B-LCLs by mild acid treatment and identified by LC-MS/MS with personalized database
Format: cell-based
Conditions: EBV-transformed B-LCLs of 2 HLA-identical siblings
Protocol: (§1) Peripheral blood mononuclear cells (PBMCs) were isolated from blood samples of 2 HLA-identical siblings. Epstein-Barr virus (EBV)-transformed B lymphoblastoid cell lines (B-LCLs) were derived from PBMCs with Ficoll-Paque™ Plus (Amersham) as described (Tosato and Cohen, 2007). Established B-LCLs were maintained in RPMI 1640 medium supplemented with 10% fetal bovine serum, 25 mM of HEPES, 2 mM L-glutamine and penicillin-streptomycin (all from Invitrogen).
(§2) Three biological replicates of 4×10^8 exponentially growing B-LCLs were prepared from each subject. MHC class I-associated peptides were released by mild acid treatment, pretreated by desalting with an HLB cartridge, filtered with a 3000 Da cut-off column and separated by cation exchange chromatography (SCX) using an off-line 1100 series binary LC system (Agilent Technologies) as previously described (Fortier et al., 2008). Peptides were loaded at 8 uL/min on a homemade strong cation exchange (SCX) column (0.3 mm internal diameter×50 mm length) packed with SCX bulk material (Polysulfoethyl A™, PolyLC). Peptides were separated into five fractions using a linear gradient of 0-25% B in 25 min (solvent A: 5 mM ammonium formate, 15% acetonitrile, ACN, pH 3.0; solvent B: 2 M ammonium formate, 15% ACN, pH 3.0) and brought to dryness using a Speedvac.
(§3) MHC class I-associated peptide fractions were resuspended in 2% aqueous ACN (0.2% formic acid) and analyzed by LC-MS/MS using an Eksigent™ LC system coupled to a LTQ-Orbitrap™ mass spectrometer (Thermo Electron) (Fortier et al., 2008; de Verteuil et al., 2010; Caron et al., 2011). Peptides were separated in a custom C18 reversed phase column (150 μm i.d.×100 mm, Jupiter Proteo™ 4 μm, Phenomenex) at a flow rate of 600 nL/min using a linear gradient of 3-60% aqueous ACN (0.2% formic acid) in 69 mins. Full mass spectra were acquired with the Orbitrap™ analyzer operated at a resolving power of 60 000 (at m/z 400) and collision-activated dissociation tandem mass spectra were acquired in data-dependent mode with the linear ion trap analyzer. Mass calibration used an internal lock mass (protonated (Si(CH3)2O))6; m/z 445.120029) and mass accuracy of peptide measurements was within 5 ppm.
(§4) Mass spectra were analyzed using Xcalibur™ software and peak lists were generated using Mascot™ distiller version 2.1.1 (Matrix Science, http://www.matrixscience.com). Database searches were performed against a non-redundant human Uniprot database (containing 110,361 sequences, released on 28, Jul. 2011) (version 101 of the UniProt Gene Ontology Annotation available from the European Bioinformatics Institute (EBI), an academic research institute located on the Wellcome Trust Genome Campus in Hinxton near Cambridge (UK), part of the European Molecular Biology Laboratory; http://www.ebi.ac.uk/Informationt; Magrane et al., Database Vol. 2011, Article ID bar009; The UniProt Consortium, Nucleic Acids Res. 2011 January; 39(Database issue): D214-D219) and databases specific for each individual (see “in silico translated transcriptome” section) using Mascot (version 2.3, Matrix Science). A Mascot search against a concatenated target/decoy database consisting of combined forward and reverse versions of the Ensembl human reference genome database and of each subject-specific database. Non-redundant peptide sequences with a cutoff score threshold above 15 were selected. The tolerances for precursor and fragment mass values were set to 0.02 and 0.05 Dalton, respectively. Searches were performed without enzyme specificity and a variable modification for oxidation (Met) and deamidation (Asn, Gln). Raw data files were converted to peptide maps comprising m/z values, charge state, retention time and intensity for all detected ions above a threshold of 8000 counts using in-house software (Proteoprofile) (Fortier et al., 2008; de Verteuil et al., 2010; Caron et al., 2011). […]

Presentation at the cell surface by MHC class I allele, presented at the cell surface:
SLFFRKVAF (listed as Homo sapiens) [MiHA peptide from MTCH2, rs1064608, alanine allele]
ELQEKFSSL (listed as Homo sapiens) [MiHA peptide from CENPF, rs3795517, serine allele]
SLFFRKVPF (listed as Homo sapiens) [MiHA peptide from MTCH2, rs1064608, proline allele]
ELQEKFLSL (listed as Homo sapiens) [MiHA peptide from CENPF, rs3795517, leucine allele]

Biological target: T1, HLA-A*0301 (Homo sapiens, UniProt P04439)
T1 construct: endogenous in cells; host or cells: EBV-transformed B lymphoblastoid cell lines (B-LCLs) from PBMCs of 2 HLA-identical siblings
Assay: as above
Format: cell-based
Conditions: EBV-transformed B-LCLs of 2 HLA-identical siblings
Protocol: as §1, §2, §3, §4

Presentation at the cell surface by MHC class I allele, presented at the cell surface:
RVSLPTSPR (listed as Homo sapiens) [MiHA peptide from KIAA0226L, rs1408184, arginine allele]
VMGNPGTFK (listed as Homo sapiens) [MiHA peptide from RMDN1, rs6980476, lysine allele]
AMYDKGPFWSK (listed as Homo sapiens) [MiHA peptide from NQO1, rs1131341, tryptophan allele]
VMGNPGTFN (listed as Homo sapiens) [MiHA peptide from RMDN1, rs6980476, asparagine allele]
TVLKPGNSK (listed as Homo sapiens) [MiHA peptide from ELF1, rs1056820, threonine allele]
RVSLPTSPG (listed as Homo sapiens) [MiHA peptide from KIAA0226L, rs1408184, glycine allele]
AMYDKGPFRSK (listed as Homo sapiens) [MiHA peptide from NQO1, rs1131341, arginine allele]
SVLKPGNSK (listed as Homo sapiens) [MiHA peptide from ELF1, rs1056820, serine allele]

Biological target: HLA-B*4403 (Homo sapiens, UniProt P01889, A223V/A65T/A93T/A95T/D201E/D98Y/E176V/E187L/E204Q/E69K/G107R/H137Y/K202T/L105A/L119I/N104T/N87E/Q56L/Q94N/R106L/R155S/R180L/S101N/S121R/S35A/S48T/T118I/V36M/W191S/Y140D/Y91S)
Assay: as above
Format: cell-based
Conditions: EBV-transformed B-LCLs of 2 HLA-identical siblings
Protocol: as §1, §2, §3, §4

Presentation at the cell surface by MHC class I allele, presented at the cell surface:
QELDRVFQKL (listed as Homo sapiens) [MiHA peptide from ZWINT, rs2241666, arginine allele]
QELDGVFQKL (listed as Homo sapiens) [MiHA peptide from ZWINT, rs2241666, glycine allele]

Source: patent US9500651B2, “Method for identifying novel minor histocompatibility antigens” (UNIVERSITÉ DE MONTRÉAL, priority 2012, dated 2016)
